# Laboratory results as given in patent EP4631523A2.
# B1: COR-001 antibody (antibody, human IgG1, kappa, V domains shown)
# VH: EVQLVESGGGLVQPGGSLRLSCAASGFTISSNYMIWVRQAPGKGLEWVSDLYYYAGDTYYADSVKGRFTMSRDISKNTVYLQMNSLRAEDTAVYYCARWADDHPPWIDLWGRGTLVTVSS
# VL: DIQMTQSPSTLSASVGDRVTITCRASQGISSWLAWYQQKPGKAPKVLIYKASTLESGVPSRFSGSGSGTEFTLTISSLQPDDFATYYCQQSWLGGSFGQGTKLEIKR
# Columns and labels:
# interleukin 6 (IL-6) [1] = molecular target: interleukin 6 (IL-6) (UniProt P05231); experiment: IL-6 binding ELISA; 5±3°C, 6 months
# interleukin 6 (IL-6) [2] = molecular target: interleukin 6 (IL-6) (UniProt P05231); experiment: IL-6 binding ELISA, relative to a Phase I DS lot; 120 mg/mL formulation without methionine, T0 (frozen aliquot)
# interleukin 6 (IL-6) [3] = molecular target: interleukin 6 (IL-6) (UniProt P05231); experiment: IL-6 binding ELISA; 40±2°C, 3 months
# interleukin 6 (IL-6) [4] = molecular target: interleukin 6 (IL-6) (UniProt P05231); experiment: IL-6 binding ELISA; 25±2°C, 6 months
# interleukin 6 (IL-6) [5] = molecular target: interleukin 6 (IL-6) (UniProt P05231); experiment: IL-6 binding ELISA; 25±2°C, 1 month
# interleukin 6 (IL-6) [6] = molecular target: interleukin 6 (IL-6) (UniProt P05231); experiment: IL-6 binding ELISA; 25±2°C, 1 month; remark: listed apart in the source
# interleukin 6 (IL-6) [7] = molecular target: interleukin 6 (IL-6) (UniProt P05231); experiment: IL-6 binding ELISA; 5±3°C, 6 months; remark: listed apart in the source
# interleukin 6 (IL-6) [8] = molecular target: interleukin 6 (IL-6) (UniProt P05231); experiment: IL-6 binding ELISA; 5±3°C, 0 months
# interleukin 6 (IL-6) [9] = molecular target: interleukin 6 (IL-6) (UniProt P05231); experiment: IL-6 binding ELISA; 25±2°C, 1 month; remark: listed apart in the source
# interleukin 6 (IL-6) [10] = molecular target: interleukin 6 (IL-6) (UniProt P05231); experiment: IL-6 binding ELISA; 5±3°C, 9 months
# interleukin 6 (IL-6) [11] = molecular target: interleukin 6 (IL-6) (UniProt P05231); experiment: IL-6 binding ELISA; 5±3°C, 3 months
# interleukin 6 (IL-6) [12] = molecular target: interleukin 6 (IL-6) (UniProt P05231); experiment: IL-6 binding ELISA, relative to a Phase I DS lot; 20 mg/mL formulation without methionine, 12 months at 2 to 8°C
# interleukin 6 (IL-6) [13] = molecular target: interleukin 6 (IL-6) (UniProt P05231); experiment: IL-6 binding ELISA; 40±2°C, 3 months; remark: listed apart in the source
# interleukin 6 (IL-6) [14] = molecular target: interleukin 6 (IL-6) (UniProt P05231); experiment: IL-6 binding ELISA; 5±3°C, 1 month
# interleukin 6 (IL-6) [15] = molecular target: interleukin 6 (IL-6) (UniProt P05231); experiment: IL-6 binding ELISA; 5±3°C, 0 months; remark: listed apart in the source
# interleukin 6 (IL-6) [16] = molecular target: interleukin 6 (IL-6) (UniProt P05231); experiment: IL-6 binding ELISA; 25±2°C, 0 months
# interleukin 6 (IL-6) [17] = molecular target: interleukin 6 (IL-6) (UniProt P05231); experiment: IL-6 binding ELISA; 5±3°C, 0 months; remark: listed apart in the source
# interleukin 6 (IL-6) [18] = molecular target: interleukin 6 (IL-6) (UniProt P05231); experiment: IL-6 binding ELISA; 5±3°C, 1 month; remark: listed apart in the source
# interleukin 6 (IL-6) [19] = molecular target: interleukin 6 (IL-6) (UniProt P05231); experiment: IL-6 binding ELISA; 25±2°C, 0 months; remark: listed apart in the source
# interleukin 6 (IL-6) [20] = molecular target: interleukin 6 (IL-6) (UniProt P05231); experiment: IL-6 binding ELISA; 40±2°C, 3 months; remark: listed apart in the source
# interleukin 6 (IL-6) [21] = molecular target: interleukin 6 (IL-6) (UniProt P05231); experiment: IL-6 binding ELISA; 25±2°C, 0 months; remark: listed apart in the source
# interleukin 6 (IL-6) [22] = molecular target: interleukin 6 (IL-6) (UniProt P05231); experiment: IL-6 binding ELISA; 5±3°C, 9 months; remark: listed apart in the source
# interleukin 6 (IL-6) [23] = molecular target: interleukin 6 (IL-6) (UniProt P05231); experiment: IL-6 binding ELISA; 25±2°C, 3 months
# interleukin 6 (IL-6) [24] = molecular target: interleukin 6 (IL-6) (UniProt P05231); experiment: IL-6 binding ELISA, relative to a Phase I DS lot; 120 mg/mL formulation without methionine, 9 months at 2 to 8°C
# interleukin 6 (IL-6) [25] = molecular target: interleukin 6 (IL-6) (UniProt P05231); experiment: IL-6 binding ELISA; 40±2°C, 1 month
# interleukin 6 (IL-6) [26] = molecular target: interleukin 6 (IL-6) (UniProt P05231); experiment: IL-6 binding ELISA; 25±2°C, 12 months
# interleukin 6 (IL-6) [27] = molecular target: interleukin 6 (IL-6) (UniProt P05231); experiment: IL-6 binding ELISA; 40±2°C, 0 months
# interleukin 6 (IL-6) [28] = molecular target: interleukin 6 (IL-6) (UniProt P05231); experiment: IL-6 binding ELISA; 40±2°C, 0 months; remark: listed apart in the source
# interleukin 6 (IL-6) [29] = molecular target: interleukin 6 (IL-6) (UniProt P05231); experiment: IL-6 binding ELISA; 5±3°C, 6 months; remark: listed apart in the source
# interleukin 6 (IL-6) [30] = molecular target: interleukin 6 (IL-6) (UniProt P05231); experiment: IL-6 binding ELISA; 5±3°C, 1 month; remark: listed apart in the source
# interleukin 6 (IL-6) [31] = molecular target: interleukin 6 (IL-6) (UniProt P05231); experiment: IL-6 binding ELISA; 25±2°C, 3 months; remark: listed apart in the source
# Sequence of UniProt P05231 (P05231 30-212 limits assumed): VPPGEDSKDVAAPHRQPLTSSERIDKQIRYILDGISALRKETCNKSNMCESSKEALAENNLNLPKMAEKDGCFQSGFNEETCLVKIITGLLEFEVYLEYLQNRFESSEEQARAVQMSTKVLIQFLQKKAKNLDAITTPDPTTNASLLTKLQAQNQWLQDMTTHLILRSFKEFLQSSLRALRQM
binder,measurement,setting,value
B1,IL-6 binding ELISA (% of Reference Standard),interleukin 6 (IL-6) [1],95%
same,IL-6 binding ELISA (% of assay control),interleukin 6 (IL-6) [2],91%
same,IL-6 binding ELISA (% of Reference Standard),interleukin 6 (IL-6) [3],78%
same,IL-6 binding ELISA (% of Reference Standard),interleukin 6 (IL-6) [4],92%
same,IL-6 binding ELISA (% of Reference Standard),interleukin 6 (IL-6) [5],96%
same,IL-6 binding ELISA (% of Reference Standard),interleukin 6 (IL-6) [6],110%
same,IL-6 binding ELISA (% of Reference Standard),interleukin 6 (IL-6) [7],97%
same,IL-6 binding ELISA (% of Reference Standard),interleukin 6 (IL-6) [8],96%
same,IL-6 binding ELISA (% of Reference Standard),interleukin 6 (IL-6) [9],93%
same,IL-6 binding ELISA (% of Reference Standard),interleukin 6 (IL-6) [10],85%
same,IL-6 binding ELISA (% of Reference Standard),interleukin 6 (IL-6) [11],85%
same,IL-6 binding ELISA (% of assay control),interleukin 6 (IL-6) [12],84%
same,IL-6 binding ELISA (% of Reference Standard),interleukin 6 (IL-6) [13],99%
same,IL-6 binding ELISA (% of Reference Standard),interleukin 6 (IL-6) [14],86%
same,IL-6 binding ELISA (% of Reference Standard),interleukin 6 (IL-6) [15],103%
same,IL-6 binding ELISA (% of Reference Standard),interleukin 6 (IL-6) [16],94%
same,IL-6 binding ELISA (% of Reference Standard),interleukin 6 (IL-6) [17],91%
same,IL-6 binding ELISA (% of Reference Standard),interleukin 6 (IL-6) [18],94%
same,IL-6 binding ELISA (% of Reference Standard),interleukin 6 (IL-6) [19],103%
same,IL-6 binding ELISA (% of Reference Standard),interleukin 6 (IL-6) [20],97%
same,IL-6 binding ELISA (% of Reference Standard),interleukin 6 (IL-6) [21],97%
same,IL-6 binding ELISA (% of Reference Standard),interleukin 6 (IL-6) [22],89%
same,IL-6 binding ELISA (% of Reference Standard),interleukin 6 (IL-6) [23],102%
same,IL-6 binding ELISA (% of assay control),interleukin 6 (IL-6) [24],79%
same,IL-6 binding ELISA (% of Reference Standard),interleukin 6 (IL-6) [25],85%
same,IL-6 binding ELISA (% of Reference Standard),interleukin 6 (IL-6) [26],95%
same,IL-6 binding ELISA (% of Reference Standard),interleukin 6 (IL-6) [27],91%
same,IL-6 binding ELISA (% of Reference Standard),interleukin 6 (IL-6) [28],96%
same,IL-6 binding ELISA (% of Reference Standard),interleukin 6 (IL-6) [29],83%
same,IL-6 binding ELISA (% of Reference Standard),interleukin 6 (IL-6) [30],98%
same,IL-6 binding ELISA (% of Reference Standard),interleukin 6 (IL-6) [31],97%
